Results taken from PMC5043356, “A general solution for opening double-stranded DNA for isothermal amplification”.

Biological target: RecA (Escherichia coli BJ5183, UniProt P0A7G6 1-353)
Test: EMSA; no nucleotide cofactor; 1 mM Mg2+ (10 mM in Fig. S1B); about 5 nt per RecA; 25 mM Tris pH 7.6, 1 mM MgCl2 (10 mM in supplementary assays), 1 mM DTT, 37 C, 10 min, 12 pmol X1 in 10 ul; 2% native agarose gel
Conditions: protein: recombinant; tags: His tag (pET28a, Ni purification); single strand

RecA, sequence (P0A7G6 whole entry): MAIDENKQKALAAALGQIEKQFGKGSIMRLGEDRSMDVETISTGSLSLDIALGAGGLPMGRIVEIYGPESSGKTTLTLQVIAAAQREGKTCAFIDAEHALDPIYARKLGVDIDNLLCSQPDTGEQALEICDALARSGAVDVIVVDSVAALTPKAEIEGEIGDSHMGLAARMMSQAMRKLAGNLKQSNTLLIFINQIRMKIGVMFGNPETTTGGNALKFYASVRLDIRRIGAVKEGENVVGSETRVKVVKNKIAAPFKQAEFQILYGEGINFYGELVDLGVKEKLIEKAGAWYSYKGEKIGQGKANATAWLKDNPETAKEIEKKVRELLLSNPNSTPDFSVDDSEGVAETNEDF

B1: X1 (54 nt) (ssDNA)
DNA: TACGTTAACAAAAAGTCAGATATGGACCTTGCTGCTAAAGGTCTAGGAGCTAAA
B1: binds.
